For 47 variants, abundance fitness results are on record in the Human Domainome abundance scans (Beltran et al. 2025).

To fix the notation:
B1: Zinc finger homeobox protein 4, residues 2562 to 2617; numbered along this chain, Q86UP3 (parent)
chain: RLRTTITPEQLEILYEKYLLDSNPTRKMLDHIAREVGLKKRVVQVWFQNTRARERK

± gives the uncertainty stated by the source.

In the data set the parent is B1. In words: abundance fitness (aPCA) (normalised: wild type 0, dead -1); higher = more abundant; growth selection in yeast, the domain comes from the species named. The conditions noted are these: Homo sapiens.
Consider RLRTTITPEQLEILYEKYLLDSNPTRKMLDHIAREVGLKKRVVQVWFQNMRARERK [T50M], for which the abundance fitness is -0.094 ± 0.083.

Consider RLRTTITPEQLEILYEKYLLDSNPTRKMLDHIAREVGLKKRVVQVWFQNERARERK [T50E], for which the abundance fitness turned out to be 0.265 ± 0.11.

On to RLRTTITPEQLEILYEKYLLDSNPTRKMLDHIAREVGLKKRVVQVWFQNHRARERK [T50H], for which the abundance fitness was -0.034 ± 0.12. In the case of RLRTTITPEQLEILYEKYLLDSNPTRKMLDHIAREVGLKKRVVQVWFQNSRARERK [T50S], the abundance fitness came out at 0.06 ± 0.083. Turning to RLRTTITPEQLEILYEKYLLDSSPTRKMLDHIAREVGLKKRVVQVWFQNTRARERK [N23S], the abundance fitness is -0.1 ± 0.061. For the variant RLRTTITPEQLEILYEKYLLDSRPTRKMLDHIAREVGLKKRVVQVWFQNTRARERK [N23R], the abundance fitness was found to be 0.017 ± 0.057. Regarding RLRTTITPEQLEILEEKYLLDSNPTRKMLDHIAREVGLKKRVVQVWFQNTRARERK [Y15E], the abundance fitness came out at 0.301 ± 0.071.

Consider RLRTTITPEQLEILNEKYLLDSNPTRKMLDHIAREVGLKKRVVQVWFQNTRARERK [Y15N], for which the abundance fitness was 0.075 ± 0.094. The same measure for RLRTTITPEQLEILYEKYLLDSNPTRKMLDHIAREVGLKKRVVQVVFQNTRARERK [W46V]: -0.723 ± 0.061. The figure for RLRTTITPEQLEILYEKYLLDSNPTRKMLDHIAREVGLKKRVVQVIFQNTRARERK [W46I] is -0.939 ± 0.15. Take RLRTTITPEQMEILYEKYLLDSNPTRKMLDHIAREVGLKKRVVQVWFQNTRARERK [L11M]: the abundance fitness is -0.062 ± 0.089.

Regarding RLRTTITPEQGEILYEKYLLDSNPTRKMLDHIAREVGLKKRVVQVWFQNTRARERK [L11G], the abundance fitness was -0.017 ± 0.066. The same measure for RLRTTITPEQKEILYEKYLLDSNPTRKMLDHIAREVGLKKRVVQVWFQNTRARERK [L11K]: -0.05 ± 0.09; for RLRTTITPEQNEILYEKYLLDSNPTRKMLDHIAREVGLKKRVVQVWFQNTRARERK [L11N]: -0.189 ± 0.11; for RLRTTITPEQLEILYEKYLLDSNPTRKMLDHIAREVGLKKRVPQVWFQNTRARERK [V43P]: -0.862 ± 0.24. Regarding RLTTTITPEQLEILYEKYLLDSNPTRKMLDHIAREVGLKKRVVQVWFQNTRARERK [R3T], the abundance fitness was determined as 0.359 ± 0.089. In the case of RLATTITPEQLEILYEKYLLDSNPTRKMLDHIAREVGLKKRVVQVWFQNTRARERK [R3A], the abundance fitness worked out at 0.119 ± 0.053. The figure for RLRTTITPEQLEILYEKYLLDSNPTHKMLDHIAREVGLKKRVVQVWFQNTRARERK [R26H] is -0.017 ± 0.36; for RLRTTITPEQLEILYEKYLLDSNPTRKSLDHIAREVGLKKRVVQVWFQNTRARERK [M28S] it is -0.152 ± 0.053.

For RLRTTITPEQLEILYEKYLLDSNPTRKTLDHIAREVGLKKRVVQVWFQNTRARERK [M28T], the abundance fitness is -0.003 ± 0.066. The same measure for RLRWTITPEQLEILYEKYLLDSNPTRKMLDHIAREVGLKKRVVQVWFQNTRARERK [T4W]: -0.305 ± 0.057; for RLRYTITPEQLEILYEKYLLDSNPTRKMLDHIAREVGLKKRVVQVWFQNTRARERK [T4Y]: -0.109 ± 0.15; for RLRTTITPEQLEILYEKYLLDSNPTRKMLDHIAREVNLKKRVVQVWFQNTRARERK [G37N]: 0.107 ± 0.14. The same measure for RLRTTITPEQLEILYEKYLLDSNPTRKMLDHIAREVPLKKRVVQVWFQNTRARERK [G37P]: -0.812 ± 0.23; for RLRTTITPEQLEILYEKYLLDSNPTRKMLDHIAREVRLKKRVVQVWFQNTRARERK [G37R]: -0.369 ± 0.081. For the variant RLRTTITPEQLEILYEKYLLDSNPTRKMLDHIAREVHLKKRVVQVWFQNTRARERK [G37H], the abundance fitness was -0.471 ± 0.2. The same measure for RLRTTITPEQLEILYEKYLLDSNPTRKMLDHIAREVILKKRVVQVWFQNTRARERK [G37I]: -0.828 ± 0.27. The same measure for RLRTTITPEQLEILYEKYLLDSNPTRKMLDHIAREVGLKKRVVQVWFQNTRAREDK [R55D]: 0.262 ± 0.082; for RLRTTITPEQLEILYEKYLLDSNPTRKMLDHIAREVGLKKRVVQVWFQNTRAREKK [R55K]: -0.035 ± 0.22; for RLRTTITPEQLEILYEKYLLDSNPTRKMLDHIAREVGLKKRVVQTWFQNTRARERK [V45T]: -0.045 ± 0.075. In the case of RLRTTITPEQLEILYEKYLLDSNPTRKMLDEIAREVGLKKRVVQVWFQNTRARERK [H31E], the abundance fitness stood at 0.426 ± 0.095. The figure for RLRTTITPEQLEILYEGYLLDSNPTRKMLDHIAREVGLKKRVVQVWFQNTRARERK [K17G] is -0.513 ± 0.2; for RLRTTITPEQLEILYEKYLLDSNPTRKMLDHIAREVGLKKRGVQVWFQNTRARERK [V42G] it is -0.533 ± 0.067; for RHRTTITPEQLEILYEKYLLDSNPTRKMLDHIAREVGLKKRVVQVWFQNTRARERK [L2H] it is -0.357 ± 0.22. On to RWRTTITPEQLEILYEKYLLDSNPTRKMLDHIAREVGLKKRVVQVWFQNTRARERK [L2W], for which the abundance fitness was -0.421 ± 0.12. The figure for RLRTAITPEQLEILYEKYLLDSNPTRKMLDHIAREVGLKKRVVQVWFQNTRARERK [T5A] is -0.398 ± 0.22; for RLRTTITPEQLEILYEKYLLDSNPTRKMLDHIAREVGLKKRVVQVWFQNTRARERV [K56V] it is -0.282 ± 0.37; for RLRTTITPEQLEILYEKYLLDSNPTRKMLDHIAREVGLKKRVVQVWFQNTRARERS [K56S] it is -0.043 ± 0.14.

Regarding RLRTTITPEQLEILYEKYLLDSNPTRKMLDHIAREVGLKKRVVQVWFQNTNARERK [R51N], the abundance fitness came to 0.156 ± 0.15. Regarding RLRTTITPEQLEILYEKYLLDSNPTRKMLDHIAREVGLKKRVVQVWFQNTEARERK [R51E], the abundance fitness is -0.15 ± 0.12. As for RLRTTITPEQLEILYEKYLLDSNPTRKMLDHIAREVGLKKRVVQVWFQNTIARERK [R51I], the abundance fitness was 0.134 ± 0.064.

For the variant RLRTTITPEQLEILYEKVLLDSNPTRKMLDHIAREVGLKKRVVQVWFQNTRARERK [Y18V], the abundance fitness is -0.764 ± 0.095. As to RLRTTITPEQLEILYEKRLLDSNPTRKMLDHIAREVGLKKRVVQVWFQNTRARERK [Y18R], the abundance fitness was -0.659 ± 0.12.

Turning to RLRTTITPEQLEILYEKNLLDSNPTRKMLDHIAREVGLKKRVVQVWFQNTRARERK [Y18N], the abundance fitness is -0.59 ± 0.42. In the case of RLRTTITPEQLEILYEKYQLDSNPTRKMLDHIAREVGLKKRVVQVWFQNTRARERK [L19Q], the abundance fitness is -0.214 ± 0.21. The figure for RLRTTITPEQLEILYEKYLLDSNPTRKMLDHGAREVGLKKRVVQVWFQNTRARERK [I32G] is -0.945 ± 0.16. The same measure for RLRTTITPEQLEILYEKYLLDSNATRKMLDHIAREVGLKKRVVQVWFQNTRARERK [P24A]: -0.861 ± 0.15.
